# Results: publication PMC3716654, “The UmuC subunit of the E. coli DNA polymerase V shows a unique interaction with the β-clamp processivity factor” (BMC Structural Biology, 2013)
# Where no end group is shown, it is not given here. Dylight649 = Dylight649 fluorophore attached through the cysteine
# B1: Dylight649-UmuC synthetic peptide (Dylight649-C-QGVAQLNLFDD) (peptide)
# peptide: C(Dylight649)QGVAQLNLFDD
# notes: cysteine added to permit linkage of the chromophore; not a UmuC residue; 12-mer including the added N-terminal cysteine; Only 356-361 (chain D) and 357-361 (chain C) are ordered in the structure; also called Dylight649-Pol V synthetic peptide; UmuC peptide; source: synthetic peptide (Cambridge Peptides)
# Molecular target: T1, E. coli β-clamp processivity factor (E. coli, UniProt P0A988 1-366)
# T1 construct: DNA polymerase III β subunit (β sliding clamp, dnaN), E. coli, full length, from plasmid pACYC11-dnaN; residues up to Leu-366 are named; The last residue of the hexa-histidine tag is modelled in both subunits; also called sliding clamp; not shown: His6, N-terminal, kept
# T1 sequence (P0A988 whole entry): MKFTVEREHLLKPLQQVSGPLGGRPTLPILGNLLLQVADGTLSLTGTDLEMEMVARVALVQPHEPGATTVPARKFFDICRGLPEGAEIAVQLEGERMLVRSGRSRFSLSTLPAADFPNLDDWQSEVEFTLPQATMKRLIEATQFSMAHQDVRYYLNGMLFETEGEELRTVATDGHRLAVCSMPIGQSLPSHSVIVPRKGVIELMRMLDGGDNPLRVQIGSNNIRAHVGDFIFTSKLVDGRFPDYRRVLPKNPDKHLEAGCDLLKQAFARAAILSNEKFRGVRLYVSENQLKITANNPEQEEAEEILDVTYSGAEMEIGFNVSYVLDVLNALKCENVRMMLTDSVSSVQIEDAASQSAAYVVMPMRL
# Assay: crystal structure; β-clamp/Dylight649-UmuC peptide complex purified by SEC, 15 mg/ml; crystallised in 200 mM calcium acetate, 200 mM MES pH 6.5, 14% PEG 6000, sitting drop, 12°C; 2.5 Å
# Details: both partners purified
binder,measurement,value
B1,binding result,binds
